Assay results from the nanobody polyreactivity screen of Harvey et al. (2022).

Experiment: yeast display, Sf9 membrane polyspecificity reagent, FACS + sequencing; frameworks hold sequencing errors
Method in brief: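 Synthetic nanobody libraries on Saccharomyces cerevisiae BJ5465 were galactose-induced for 36–48 hours, stained 1 hour at 4 °C with 10% biotinylated, detergent-solubilized Sf9 membrane reagent and enriched on streptavidin microbeads. FACS then separated cells into low and high (top ~1%) gates by anti-HA (expression) and streptavidin (reagent binding) fluorescence. Genes were colony-PCR amplified, MiSeq 2 × 250 sequenced and CDR-length filtered. A clone's polyreactivity label is that of its gate of origin.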

Row | Sequence | polyreactivity (PSR sort gate)
1 | QVQLVESGGGLVQAGGSLRLSCAASGITSWYYAMGWYRQAPGKERELVAAITSDGSTYYADSVKGRFTISRDNAKNTVYLQMNSLKPEDTAVYYCAAERDYWIPDSYLVGMDYWGQGTQVTVSS | low polyreactivity
2 | QVQLVESGGGLVQAGGSLRLSCAASGSIFHRYAMGWYRQAPGKERELVAAISWRGSSTYYADSVKGRFTISRDNAKNTVYLQMNSLKPEDTAVYYCNARGGSRRRYDYWGQGTQVTVSS | high polyreactivity
3 | QVQLEESGGGLVQAGGSLRISCAASGITFDDYDMGWYRQAPGKERELVAAITWSGGSTYYADSVKGRFTSSRDNAKNTVYLQMNSLKPEVTAVSYCNAGSTWAYSYPVGKSDLDYWGQGTQVTVSS | low polyreactivity
4 | QVQLVESGGGLVQAGGSLRLSCASSGSTFSIYAMGWYRQAPGKERELVAGISGSGGSTYYADSVKGRFTISRDNAKNTVYLQMNSLKPEDTAVYYCAKRVLWGLDYWGQGTQVTVSS | low polyreactivity
5 | QVQLVESGGGLVQAGGSLRLSCAASGLIFNVNVMGWYRQAPGKERELVAAIDYSGGSTYYADSVKGRFTISRDNAKNTVFLQMNSLKPEDTAVYYCSADDAAWPYSWWGFDYWGQGTQVTVSS | low polyreactivity
6 | QVQLVESGGGLVQAGGSLRLSCAASGRTFQYYAMGWYRQAPGKERELVAAISWSGARTYYADSVKGRFTISRDNAKNTVYLQMNSLKPEDTAVYYCAADRYWISLWYIMGYWGQGTQVTVSS | high polyreactivity
7 | QVQLEESGGGLVQAGGSLRLSCAASGSTFHLYAMGLYRQAPGKEREFVAAIRGRGGNTYADSVKGRFTISRDNAKNTVYLQMNSLKPEDTAVYYCAAPLLRDLRSQYYYIYWGQCTQVTVSS | low polyreactivity
8 | QVQLVESGGGLVQAGGSLRLSCAASGSTYLYAIRWYRQAPGKERELVAAISWSGGSTYYADSVKGRFTISRDNAKNTVYLQMNSLKPEDTAVYYCNAYTYPFDWGQGTQVTVSS | high polyreactivity
9 | QVQLVESGGGLVQAGGSLRLSCAASGSTFIYYTMGWYRQAPGKERELVAAIPSSGGSTYYADSVKGRFTISRDNAKNTVYLQMNSLKPEDTAVYYCAADGTYIKFAKLYRRYDYWGQGTLVTVSS | low polyreactivity
10 | QVQLVETGGGLVQAGGSLRLSCAASGRIFWLYAMGWYRQAPGKERELVASISSGGTTHYADSVKGRFTISRDNAKNTVYLQMNSLKPEDTAVYYCAVRPYYSWAYYYWGQGTQVTLSS | high polyreactivity
11 | QVQLLESGGGLVQAGGSLRLSCAASGRIFVKYAMGWYRQAPGKERELVAAISKSGGSTYYADSVKGRFTISRDNAKNTVYLQMNSLKPEDTAVYYCAPRSRDQYSGSYRLDYWGQGTQVTVSS | low polyreactivity
12 | QVQLVESGGGLVQAGGSLRVSCAASGSIFPDNAMGWYRQAPGKERELVAAITRGGSTYYADSVKGRFTISRDNAKNTVYLQMNSLKPEDTAVYYCAARRRYLWSYDYWGQGTQVTVSS | high polyreactivity
13 | QVQLVESGGGLVQAGGSLRLSCAASGRTFRLYAMGWYRQAPGKERELVAAIRSGGSTNYADSVKGRFTISRDNAKNTVYLQMNSLKPEDTAVYYCAVDGYFFQGPYYYWGQGTQVTVSS | low polyreactivity
14 | QVQLVESGGGLVQAGGSLRLSCAASGSTFYLYDMGWYRQAPGKEREMVAAISWSSGSTYYADSVKGRFTISRDNAKNTVYLQMNSLKPEETAVYYCAAGPSDTEYWLFDYWGQGTQVTVSS | high polyreactivity
15 | QVQLVESGAGLVQAGGSLRLSCAASGFIFYIYAMGWYRQAPGKEREFVAVISSSGGITYYADSVKGRFTISRDNAKNTFYLQMNSLKPEDTAVYYCARDTEGKYVGYGRGGYWGQGTQVTVSS | low polyreactivity
16 | QVQLVESGGGLVQAGGSLRLSCAASGRIFRGNAMGWYRQPPGKERELGATITRSGARTYYADSVKGRFTISRDNAKNTVYLQMNSLKPEDTAVYYCAARRVRSYAYDYWGQGTQVTVSS | high polyreactivity
17 | QVQLVESGGGLVQAGGSLRLSCAASGSIFEYNAMGWYRQAPGKERELVAAITRGGNTYYADSVKGRFTISRDNAKNTVYLQMNSLKPEDTAVYYCAAVQWYGYPYYSWGQGTQVIVSS | low polyreactivity
18 | QVQLVESGVGLVQAGGSLRLSCAASGRTIDHYAMGWYRQAPGKERELVAAISTTGGSTYYADSVKGRFTISRDNAKNTVYLQMNSLKPEDTAVYYCAARGLRTGGYWGQCTQVTVSS | high polyreactivity
19 | QVQLVESGGGLVQAGGSLRLTCAASGGTFDRNAMGWYRQAPGKERELVATITRRAGNTYYAYSVKGRFTISRDNAKNTVYLQMNSLKPEDTAVYYFAAYPLRSRRYYYWGQGTQVTVSS | high polyreactivity
20 | QVQLVESGGGLVQAGGSLRLSCAASGFTFTVYAMGWYRQAPGKERELVAAIRWSGGSTSYADSVKGRFTISRDNAKNTVYLQMNSLKPEDTAVYYCNARISDAHYQSNYFLVLYDYWGKGTQVTVSS | low polyreactivity
21 | QVQLVESGGGLVQAGGSLRLSCAASGRIFVNYAMGWYRQAPGKERELVAAITSDGSTSYADSVKGRFTISRDNAKNTVYLQMNSLKPEDTAVYYCAKDFFEHSPVSHTYSSSNYDYWGQGTQVTVSS | low polyreactivity
22 | QVQLVDSGGCLVQAGGSLRLSCAASGRTDGINAMGWYRQAPGKERELVAAIDSIDGTTYYADSVKGRFTISRDNAKNTVYLQMNSLKQEDTAVYYCAAEFISSYDYWGQGTQVTVSS | high polyreactivity
23 | QVQLVESGGGLVQAGGSLRLSCAASGFIFGSNAMGWYRQAPGKERELVATITKRGGTTYYADSVKGRFTISRDNAKNTVYLQMNSLKPEDTAVYYCNRSGPGFYSTRFNYWGQGTQVTVSS | high polyreactivity
24 | QVQLVESGGGLVQAGGSLRLSCAASGRTFGVYAMGWYRQAPGKERELVAGIRWRGGSTYYADSVKGRFTISRDNAKNTVYLQMNSLKPEDTAVYYCAADVYLVKYDYWGQGTQVTVSS | low polyreactivity
25 | QVQLVESGGGFFQAGGRLRLSCAASGRIFGINAMGWYRQAPGKERELVAAISRSGGRTYYADSVKGRFTISRDNGKNTVYFQMNSLKPEDTAVYDCAQGDAHSYSRYDYWGPGTQVTVSS | high polyreactivity
26 | QVQLVESGGGLVQAGGSLRLSCAASGRIFPVYAMGWYRQAPGKERELVATITSRTGRTYYADSVKGRFTISRDNAKNTVYLQMNSLIPEDTAVSYCAARGYYSAPGYGYWGQGTQVTVSS | high polyreactivity
27 | QVQLVESGRGLVQAGGSLRLSCAAAGSTFVSYDLGWSRQAPGKERELLADISWSGVSTDADSVKGRFTLSRDNAKNTVYLQMNSLKPEDPAVYYCAKDSDLYQRGGYYWGQGTQVTVSS | low polyreactivity
28 | QVQLVESGGGLVQAGGRLRLSCAASASIFRLYAMGWYRQAPGKERELVAAIRWRAGSTYYADSVKGRFTLSRDNAKNTVYLQMNSLKPEETAVNYCAADAISSAWYAKYDYWGQGTQVTGSS | high polyreactivity
29 | QVQLVESGGGLVQAGGSLRLSCAASGSIFRYYAMGWYRQAPGKERELVAAISSSGDNTYYADSVKGRFTISRDNAKNTVYLQMNSLKPEDTAVYYCAVRGERRYIYDYWGQGTQVTVSS | high polyreactivity
30 | QVQLVESGGGLVQAGGSLRLSCAASGRTFRYNTMGWYRQAPGKERELVARINWSGGSTYYADSVKGRFTISRDNAKNTVYLQMNSLKPEDTAVYYCAAVPILVYRWFQSYTGDYDYWGQGTQVTVSS | low polyreactivity
